For test [1], the target named is T1, human TNFα (human, UniProt P01375 77-233). Kind of test: cell-based or functional assay.
Test [2] concerns the target T2, cyno TNFα (cynomolgus monkey, UniProt P79337 77-233). The experiment in a line: cell-based or functional assay.
In test [3] the target is cyno IL-23 (cynomolgus monkey). Kind of test: cell-based or functional assay.
For another test, the target named is T3, human serum albumin (human, UniProt P02768 25-609).
T3 construct: also called HSA; SA (human)
T3 sequence (P02768 25-609 limits assumed): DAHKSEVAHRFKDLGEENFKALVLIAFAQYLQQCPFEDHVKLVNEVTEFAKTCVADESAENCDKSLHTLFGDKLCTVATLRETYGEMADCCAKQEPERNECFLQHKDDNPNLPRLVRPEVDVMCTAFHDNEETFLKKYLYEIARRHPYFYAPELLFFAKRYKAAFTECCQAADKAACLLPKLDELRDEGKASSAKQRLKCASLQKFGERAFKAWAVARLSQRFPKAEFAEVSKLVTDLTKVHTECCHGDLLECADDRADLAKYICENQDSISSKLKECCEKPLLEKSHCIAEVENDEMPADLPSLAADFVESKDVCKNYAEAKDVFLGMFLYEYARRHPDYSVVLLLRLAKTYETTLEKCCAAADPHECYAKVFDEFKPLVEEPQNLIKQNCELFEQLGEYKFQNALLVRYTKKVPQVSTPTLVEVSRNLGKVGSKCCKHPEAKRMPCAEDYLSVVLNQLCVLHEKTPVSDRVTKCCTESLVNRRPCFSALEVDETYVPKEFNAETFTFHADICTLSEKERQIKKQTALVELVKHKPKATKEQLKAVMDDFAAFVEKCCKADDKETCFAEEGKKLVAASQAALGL
The experiment in a line: Gyrolab in-solution affinity, 2 h incubation. An excerpt:
(§1) Biotinylated human TNFα/IL-23/serum albumin was captured in the microstructures of a Gyrolab Bioaffy 1000 CD, which contains columns of beads and is used as a molecular probe to capture free F027500069 from the equilibrated solution. The mixture of TNFα/IL-23/serum albumin and F027500069 (containing free TNFα/IL-23/serum albumin, free F027500069 and TNFα/IL-23/serum albumin—F027500069 complexes) was allowed to flow through the beads, and a small percentage of free F027500069 was captured, which is proportional to the free ISVD concentration. A fluorescently labelled anti-VHH antibody was then injected to label any captured F027500069 and after rinsing away excess of fluorescent probe, the change in fluorescence was determined. Fitting of the dilution series was done using Gyrolab Analysis software, where KD⁻ and receptor-controlled curves were analyzed to determine the KD value.

The next test concerns the target T4, cyno serum albumin (cynomolgus monkey, UniProt A2V9Z4 25-608).
T4 construct: also called SA (cynomolgus monkey)
The experiment in a line: Gyrolab in-solution affinity, 2 h incubation.
Description: as §1

In test [4] the target is T1, human TNFα. Kind of test: Gyrolab in-solution affinity, 24 h incubation.
Description: as §1

Test [5] deals with T2, cyno TNFα. Kind of test: Gyrolab in-solution affinity, 24 h incubation.
Description: as §1

Test [6] addresses T5, cyno IL-23 (cynomolgus monkey).
T5 construct: also called recombinant IL-23 from cynomolgus monkey
Kind of test: Gyrolab in-solution affinity, 24 h incubation.
Description: as §1

The target in test [7] is T1, human TNFα. The experiment in a line: Gyrolab in-solution affinity, 48 h incubation.
Description: as §1

In test [8] the target is T2, cyno TNFα. Kind of test: Gyrolab in-solution affinity, 48 h incubation.
Description: as §1

Test [9] has as its target T5, cyno IL-23. The experiment in a line: Gyrolab in-solution affinity, 48 h incubation.
Description: as §1

The target in the next test is T6, human FASL (human, UniProt P48023 134-281, limits assumed).
T6 construct: also called huFASL
T6 sequence (looked up): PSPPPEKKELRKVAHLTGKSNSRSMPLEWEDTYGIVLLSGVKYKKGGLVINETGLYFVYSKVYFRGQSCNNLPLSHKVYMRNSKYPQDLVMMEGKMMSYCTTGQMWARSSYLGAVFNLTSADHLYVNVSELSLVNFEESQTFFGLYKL
Kind of test: SPR, target immobilized by amine coupling, F027500069 injected. The method, then: (§2) Absence of binding to TNFα and IL-23 related human cytokines was assessed via SPR. hIL-12 was tested, as it shares the p40 subunit with IL-23. TNF superfamily members human FASL, TNFβ, LIGHT, TL-1A, RANKL were tested as related cytokines for TNFα.
(§3) Next, 1 μM of F027500069 was injected for 2 minutes and allowed to dissociate for 900s at a flow rate of 45 μL/min. As running buffer 1×HBS-EP+ pH7.4 was used. As positive controls, 0.2 μM α-huIL-12 Ab and 0.5 μM α-huFASL Ab, 0.5 μM α-huTNFβ Ab, 0.5 μM α-huLIGHT Ab, 0.5 μM α-huTL-1A Ab and 0.5 μM α-huRANKL VHH were injected. Interaction between F027500069 and the positive controls with the immobilized targets was measured by detection of increases in […] which occurs as a result of mass changes on the chip upon binding.
In general terms: SPR reads the build-up and loss of mass on a sensor chip optically.

Another test addresses T7, human TNFβ (human, UniProt P01374 35-205).
T7 construct: also called huTNFβ
T7 sequence (looked up): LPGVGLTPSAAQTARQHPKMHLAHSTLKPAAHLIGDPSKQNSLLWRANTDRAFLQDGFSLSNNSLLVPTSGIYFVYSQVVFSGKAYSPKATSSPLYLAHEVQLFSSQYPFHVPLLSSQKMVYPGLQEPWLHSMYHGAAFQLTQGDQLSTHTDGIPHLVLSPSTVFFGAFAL
The description is as above. The method, then: as §2, §3

A further test deals with T8, human LIGHT (human, UniProt O43557 74-240, limits assumed).
T8 construct: also called huLIGHT
T8 sequence (O43557 74-240 limits assumed): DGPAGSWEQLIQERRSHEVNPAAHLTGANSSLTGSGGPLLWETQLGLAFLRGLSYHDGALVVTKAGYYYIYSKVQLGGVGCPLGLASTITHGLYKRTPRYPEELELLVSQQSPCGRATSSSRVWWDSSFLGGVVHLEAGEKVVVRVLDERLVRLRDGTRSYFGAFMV
The description is as above. The method, then:
as §2, §3

The target of a further test is T9, human TL-1A (human, UniProt O95150 72-251).
T9 construct: also called huTL-1A
T9 sequence (looked up): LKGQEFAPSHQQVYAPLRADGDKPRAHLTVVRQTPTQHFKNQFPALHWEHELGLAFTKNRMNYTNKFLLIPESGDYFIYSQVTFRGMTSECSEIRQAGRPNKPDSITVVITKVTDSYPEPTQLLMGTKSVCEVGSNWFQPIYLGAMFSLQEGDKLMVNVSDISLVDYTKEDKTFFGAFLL
Described as above. The method, then: as §2, §3

The target in a further test is T10, human RANKL (human, UniProt O14788 140-317, limits assumed).
T10 construct: also called huRANKL
T10 sequence (looked up): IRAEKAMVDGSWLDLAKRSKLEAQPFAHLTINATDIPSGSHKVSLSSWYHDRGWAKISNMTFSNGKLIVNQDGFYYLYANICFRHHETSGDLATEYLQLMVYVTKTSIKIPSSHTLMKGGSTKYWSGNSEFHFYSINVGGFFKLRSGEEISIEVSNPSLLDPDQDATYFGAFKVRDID
Described as above. The method, then: as §2, §3

In the next test the target is T11, human IL-12 (human, UniProt P29459 23-219; P29460 23-328).
T11 construct: also called hIL-12
T11 sequence (looked up) 1: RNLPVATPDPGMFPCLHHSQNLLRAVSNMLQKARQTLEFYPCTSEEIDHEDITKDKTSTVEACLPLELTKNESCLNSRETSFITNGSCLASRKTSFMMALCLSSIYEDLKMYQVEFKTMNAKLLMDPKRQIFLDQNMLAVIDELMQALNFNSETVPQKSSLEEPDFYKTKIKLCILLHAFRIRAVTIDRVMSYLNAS
T11 sequence (looked up) 2: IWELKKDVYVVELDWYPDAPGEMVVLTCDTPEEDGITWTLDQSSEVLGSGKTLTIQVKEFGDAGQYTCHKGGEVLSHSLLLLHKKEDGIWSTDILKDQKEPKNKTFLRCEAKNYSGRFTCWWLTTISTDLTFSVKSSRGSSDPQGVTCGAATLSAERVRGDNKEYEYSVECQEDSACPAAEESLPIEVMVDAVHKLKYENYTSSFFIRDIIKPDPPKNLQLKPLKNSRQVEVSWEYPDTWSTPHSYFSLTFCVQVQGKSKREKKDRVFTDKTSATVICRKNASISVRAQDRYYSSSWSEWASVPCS
Described as above. The method, then:
as §2, §3

The target in test [10] is T12, human membrane TNFα (human, UniProt P01375 1-233).
T12 construct: whole, on cells; also called membrane expressed TNFα
T12 sequence (P01375 whole entry): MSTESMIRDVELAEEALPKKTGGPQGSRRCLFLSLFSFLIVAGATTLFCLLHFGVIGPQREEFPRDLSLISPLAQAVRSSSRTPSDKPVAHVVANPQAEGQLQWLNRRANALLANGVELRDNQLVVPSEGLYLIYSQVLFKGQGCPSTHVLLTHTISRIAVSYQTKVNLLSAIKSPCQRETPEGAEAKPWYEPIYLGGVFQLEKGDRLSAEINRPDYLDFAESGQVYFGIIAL
Kind of test: flow cytometry, human membrane TNFα expressing HEK293H cells, fixed cells. The method, then:
(§4) Briefly, cells were seeded at a density of 1×10⁴ cells/well and incubated with a dilution series of F027500069 starting from 100 nM up to 0.5 pM, for 1 hour at 4° C. In parallel, cells were fixed with 4% paraformaldehyde and 0.1% Glutaraldehyde in PBS, before seeding (to increase detection of membrane bound TNFα) and incubated with a dilution series of ISVD for 1 hour at 4° C. or for 24 hours at room temperature. Cells were washed 3 times and subsequently incubated with an anti-VHH mAb for 30 min at 4° C., washed again, and incubated for 30 min at 4° C. with a goat anti-mouse PE labelled antibody. Samples were washed and resuspended in FACS Buffer (D-PBS with 10% FBS and 0.05% sodium azide supplemented with 5 nM TOPRO3). Cell suspensions were then analysed on an iQuescreener. EC50 values were calculated using GraphPad Prism.

In test [11] the target is T12, human membrane TNFα. The experiment in a line: flow cytometry, human membrane TNFα expressing HEK293H cells, fixed cells, 1 h at 4 °C. The method, then: as §4
For orientation: A flow cytometer gives signals particle by particle.

The target in test [12] is T12, human membrane TNFα. The experiment in a line: flow cytometry, human membrane TNFα expressing HEK293H cells, viable cells, 1 h at 4 °C. The method, then:
as §4

Test [13] deals with T12, human membrane TNFα. Kind of test: flow cytometry, human membrane TNFα expressing HEK293H cells, fixed cells, 24 h at room temperature. The method, then: as §4
Another test deals with T13, OX40L (human, UniProt P23510).
T13 construct: soluble recombinant protein; also called hOX40L
T13 sequence (ligand chain, looked up): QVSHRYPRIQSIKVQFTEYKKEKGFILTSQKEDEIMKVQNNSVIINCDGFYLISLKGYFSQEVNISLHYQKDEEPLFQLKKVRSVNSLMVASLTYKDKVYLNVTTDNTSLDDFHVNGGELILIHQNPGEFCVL
The experiment in a line: SPR (ProteOn XPR36): 100 nM F027500069 captured on immobilized HSA, then 100 nM hOX40L injected for 2 min, alone or mixed with 100 nM IL-23 or TNFα, followed by 600 s dissociation. The method, then: A ProteOn XPR36 instalment was used to determine whether F027500069 can bind simultaneously to hTNFα and hIL-23. To this end HSA was immobilized on a GLC ProteOn Sensor chip via amine coupling. 100 nM of F027500069 was injected for 2 min at 10 μl/min over the HSA surface in order to capture the ISVD via the ALB23002 building block. Subsequently either 100 nM of hIL-23, hTNFα or hOX40L were injected or mixtures of 100 nM IL-23+100 nM TNFα, 100 nM IL-23+100 nM OX40L or 100 nM TNFα+[…], at a flow rate of 10 μl/min for 2 min followed by a subsequent 600 seconds dissociation step. The HSA surfaces were regenerated with a 2-minute injection of HCl (100 mM) at 45 μl/min.

T1 sequence (P01375 77-233 limits assumed): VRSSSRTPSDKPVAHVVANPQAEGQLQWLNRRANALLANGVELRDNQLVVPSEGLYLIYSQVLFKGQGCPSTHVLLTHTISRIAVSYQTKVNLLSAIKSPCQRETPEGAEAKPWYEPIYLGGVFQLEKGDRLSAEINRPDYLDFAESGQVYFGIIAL
T2 sequence (P79337 77-233 limits assumed): as the sequence (P01375 77-233 limits assumed) above, with L37V, R44T, T72N, R138L counted along it
T4 sequence (A2V9Z4 25-608 limits assumed): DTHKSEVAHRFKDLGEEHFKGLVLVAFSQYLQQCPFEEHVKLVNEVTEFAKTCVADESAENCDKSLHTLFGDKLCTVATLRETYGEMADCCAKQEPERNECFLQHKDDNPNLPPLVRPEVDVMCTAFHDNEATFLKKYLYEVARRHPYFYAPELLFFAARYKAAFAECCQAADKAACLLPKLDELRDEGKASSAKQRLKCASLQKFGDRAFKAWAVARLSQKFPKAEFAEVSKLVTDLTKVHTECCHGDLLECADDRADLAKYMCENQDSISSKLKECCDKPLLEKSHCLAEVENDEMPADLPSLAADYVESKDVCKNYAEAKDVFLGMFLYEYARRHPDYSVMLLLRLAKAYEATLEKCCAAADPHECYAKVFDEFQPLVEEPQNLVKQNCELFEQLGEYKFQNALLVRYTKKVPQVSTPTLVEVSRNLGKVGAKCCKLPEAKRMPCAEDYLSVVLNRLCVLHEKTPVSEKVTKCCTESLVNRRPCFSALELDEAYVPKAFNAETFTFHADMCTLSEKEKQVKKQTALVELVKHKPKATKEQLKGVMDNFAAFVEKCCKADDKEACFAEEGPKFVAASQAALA

B1: F027500069 (VHH)
chain: DVQLVESGGGVVQPGGSLRLSCTASGFTFSTADMGWFRQAPGKGREFVARISGIDGTTYYDEPVKGRFTISRDNSKNTVYLQMNSLRPEDTALYYCRSPRYADQWSAYDYWGQGTLVTVSSGGGGSGGGSEVQLVESGGGVVQPGGSLRLSCAASGRIFSLPASGNIFNLLTIAWYRQAPGKQRELVATIESGSRTNYADSVKGRFTISRDNSKKTVYLQMNSLRPEDTALYYCQTSGSGSPNFWGQGTLVTVSSGGGGSGGGSEVQLVESGGGVVQPGGSLRLSCAASGFTFRSFGMSWVRQAPGKGPEWVSSISGSGSDTLYADSVKGRFTISRDNSKNTLYLQMNSLRPEDTALYYCTIGGSLSRSSQGTLVTVSSGGGGSGGGSEVQLVESGGGVVQPGGSLRLSCAASGRTLSSYAMGWFRQAPGKEREFVARISQGGTAIYYADSVKGRFTISRDNSKNTVYLQMNSLRPEDTALYYCAKDPSPYYRGSAYLLSGSYDSWGQGTLVKVSSA
notes: produced in Pichia pastoris; also called F02750069; ISVD construct F027500069
As for B1, the “NFkB assay IC50 (M); Glo Response HEK293_NFkB-NLucP reporter assay, 25 pM human TNFα” value with human TNFα [1] stood at 3.88e-11 M. Also, the “NFkB assay IC50 (M); Glo Response HEK293_NFkB-NLucP reporter assay, 70 pM cyno TNFα” value with cyno TNFα [2] was determined as 1.28e-10 M. Besides, the “IL-23 reporter assay IC50 (M); Glo Response HEK293_human IL-23R/IL-12Rb1-Luc2P, 40 pM cyno IL-23” value with cyno IL-23 [3] was 3.23e-10 M. The “Mouse splenocyte assay IC50 (M); IL-23-induced mIL-22 production, 36 pM cyno IL-23” value with cyno IL-23 [3] turned out to be 3.07e-11 M. The Kd (in general, the equilibrium constant for the complex coming apart) in the test with human serum albumin amounted to 5900 pM; with cyno serum albumin, 10800 pM; with human TNFα [4] it was 3.23 pM; in the test with cyno TNFα [5], 27.5 pM; in the test with cyno IL-23 [6], 33.5 pM; with human TNFα [7], 3.39 pM. For the same molecule, the Kd came to 18.6 pM with cyno TNFα [8] and 51.2 pM with cyno IL-23 [9]. Moreover, the binding result with human FASL, with human TNFβ, with human LIGHT, in the test with human TL-1A, in the test with human RANKL and with human IL-12 was “no binding (tested: 1 µM)” throughout. Also, the binding result with OX40L was “no binding (tested: 100 nM)”. Also, in the test with human membrane TNFα [10], the “fold improvement of the EC50 (24 hours against 1 hour incubation)” value came out at 6.6 fold. Moreover, the values for the concentration for a half-maximal effect (EC50) with human membrane TNFα [11], in the test with human membrane TNFα [12] and with human membrane TNFα [13] were 811 pM, 693 pM and 122 pM, respectively.
